The record followed here is US20250262210A1 (TRUSTEES OF COLUMBIA UNIVERSITY IN THE CITY OF NEW YORK, published 2025).

The target in test [1] is T1, LZTR1 R810W-FLAG (human, UniProt Q8N653 1-840).
T1 construct: Stably expressed in U87 cells by lentivirus; also called LZTR1-FLAG-R810W; LZTR1 RW; not shown: FLAG tag
T1 sequence (looked up): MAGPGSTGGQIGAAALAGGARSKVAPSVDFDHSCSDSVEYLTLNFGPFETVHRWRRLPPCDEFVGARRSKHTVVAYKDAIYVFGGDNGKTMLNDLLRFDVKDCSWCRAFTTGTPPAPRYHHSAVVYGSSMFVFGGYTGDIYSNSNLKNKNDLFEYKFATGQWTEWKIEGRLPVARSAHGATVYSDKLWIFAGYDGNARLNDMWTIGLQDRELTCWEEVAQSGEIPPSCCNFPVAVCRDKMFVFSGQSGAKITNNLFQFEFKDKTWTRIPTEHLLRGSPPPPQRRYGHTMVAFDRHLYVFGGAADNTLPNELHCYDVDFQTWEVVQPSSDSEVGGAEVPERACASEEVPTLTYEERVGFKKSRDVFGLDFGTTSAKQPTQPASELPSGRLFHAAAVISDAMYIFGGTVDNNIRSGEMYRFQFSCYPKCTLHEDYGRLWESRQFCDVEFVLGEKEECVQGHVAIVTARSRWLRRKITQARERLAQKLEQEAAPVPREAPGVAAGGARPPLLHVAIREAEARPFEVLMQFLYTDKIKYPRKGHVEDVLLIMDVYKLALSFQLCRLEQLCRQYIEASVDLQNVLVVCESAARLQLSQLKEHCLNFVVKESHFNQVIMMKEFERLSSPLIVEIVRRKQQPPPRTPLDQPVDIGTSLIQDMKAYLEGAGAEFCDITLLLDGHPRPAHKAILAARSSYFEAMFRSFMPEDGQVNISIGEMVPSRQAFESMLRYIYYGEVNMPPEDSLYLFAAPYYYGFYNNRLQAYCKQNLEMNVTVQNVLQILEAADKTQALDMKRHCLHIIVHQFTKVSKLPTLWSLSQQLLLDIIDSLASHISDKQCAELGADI
The experiment in a line: IP/MS, LZTR1 R810W-FLAG, U87. Put shortly:
(§1)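 Extracted peptides in 3% acetonitrile/0.1% formic acid ran on a 50 cm C18 column into an Orbitrap Fusion, with MaxQuant identification and spectral counting.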

In test [2] the target is T2, LZTR1-FLAG (human, UniProt Q8N653 1-840).
T2 construct: Expressed in HEK 293T, HeLa or U87 cells; used as cell lysate; also called LZTR1 wild type-FLAG; LZTR1 WT; not shown: FLAG tag at the C-terminus
T2 sequence (looked up): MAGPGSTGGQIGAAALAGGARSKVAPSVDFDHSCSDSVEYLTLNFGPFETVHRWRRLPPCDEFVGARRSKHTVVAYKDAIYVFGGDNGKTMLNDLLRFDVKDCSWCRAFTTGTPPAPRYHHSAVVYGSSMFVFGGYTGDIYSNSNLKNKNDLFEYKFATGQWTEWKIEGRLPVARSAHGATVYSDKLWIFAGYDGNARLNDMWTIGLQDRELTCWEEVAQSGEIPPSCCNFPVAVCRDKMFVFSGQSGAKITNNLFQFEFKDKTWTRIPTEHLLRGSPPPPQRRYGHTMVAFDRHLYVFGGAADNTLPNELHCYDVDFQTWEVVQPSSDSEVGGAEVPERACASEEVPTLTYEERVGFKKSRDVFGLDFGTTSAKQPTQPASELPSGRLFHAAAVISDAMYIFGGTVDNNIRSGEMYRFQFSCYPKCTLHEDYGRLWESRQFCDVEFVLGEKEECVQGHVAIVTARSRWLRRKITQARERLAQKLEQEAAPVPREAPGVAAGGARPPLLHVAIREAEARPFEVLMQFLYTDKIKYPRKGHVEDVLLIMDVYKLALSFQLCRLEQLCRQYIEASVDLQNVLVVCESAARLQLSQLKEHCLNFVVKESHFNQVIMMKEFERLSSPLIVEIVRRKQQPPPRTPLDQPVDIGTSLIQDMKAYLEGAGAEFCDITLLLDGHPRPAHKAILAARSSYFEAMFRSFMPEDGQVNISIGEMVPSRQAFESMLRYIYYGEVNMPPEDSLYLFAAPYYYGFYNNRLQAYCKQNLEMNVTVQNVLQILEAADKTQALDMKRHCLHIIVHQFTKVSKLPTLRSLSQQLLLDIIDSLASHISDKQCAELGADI
In words: IP/MS, LZTR1 wild type-FLAG, U87. Put shortly:
as §1

B1: IFI16 (other, human, UniProt Q16666 1-785, looked up)
chain: MGKKYKNIVLLKGLEVINDYHFRMVKSLLSNDLKLNLKMREEYDKIQIADLMEEKFRGDAGLGKLIKIFEDIPTLEDLAETLKKEKLKVKGPALSRKRKKEVDATSPAPSTSSTVKTEGAEATPGAQKRKKSTKEKAGPKGSKVSEEQTQPPSPAGAGMSTAMGRSPSPKTSLSAPPNSSSTENPKTVAKCQVTPRRNVLQKRPVIVKVLSTTKPFEYETPEMEKKIMFHATVATQTQFFHVKVLNTSLKEKFNGKKIIIISDYLEYDSLLEVNEESTVSEAGPNQTFEVPNKIINRAKETLKIDILHKQASGNIVYGVFMLHKKTVNQKTTIYEIQDDRGKMDVVGTGQCHNIPCEEGDKLQLFCFRLRKKNQMSKLISEMHSFIQIKKKTNPRNNDPKSMKLPQEQRQLPYPSEASTTFPESHLRTPQMPPTTPSSSFFTKKSEDTISKMNDFMRMQILKEGSHFPGPFMTSIGPAESHPHTPQMPPSTPSSSFLTTKSEDTISKMNDFMRMQILKEGSHFPGPFMTSIGPAESHPHTPQMPPSTPSSSFLTTLKPRLKTEPEEVSIEDSAQSDLKEVMVLNATESFVYEPKEQKKMFHATVATENEVFRVKVFNIDLKEKFTPKKIIAIANYVCRNGFLEVYPFTLVADVNADRNMEIPKGLIRSASVTPKINQLCSQTKGSFVNGVFEVHKKNVRGEFTYYEIQDNTGKMEVVVHGRLTTINCEEGDKLKLTCFELAPKSGNTGELRSVIHSHIKVIKTRKNKKDILNPDSSMETSPDFFF
For B1, the binding result in test [1] and in test [2] was “binds” throughout.

B2: IKBKB (other, human, UniProt O14920 1-756, looked up)
chain: MSWSPSLTTQTCGAWEMKERLGTGGFGNVIRWHNQETGEQIAIKQCRQELSPRNRERWCLEIQIMRRLTHPNVVAARDVPEGMQNLAPNDLPLLAMEYCQGGDLRKYLNQFENCCGLREGAILTLLSDIASALRYLHENRIIHRDLKPENIVLQQGEQRLIHKIIDLGYAKELDQGSLCTSFVGTLQYLAPELLEQQKYTVTVDYWSFGTLAFECITGFRPFLPNWQPVQWHSKVRQKSEVDIVVSEDLNGTVKFSSSLPYPNNLNSVLAERLEKWLQLMLMWHPRQRGTDPTYGPNGCFKALDDILNLKLVHILNMVTGTIHTYPVTEDESLQSLKARIQQDTGIPEEDQELLQEAGLALIPDKPATQCISDGKLNEGHTLDMDLVFLFDNSKITYETQISPRPQPESVSCILQEPKRNLAFFQLRKVWGQVWHSIQTLKEDCNRLQQGQRAAMMNLLRNNSCLSKMKNSMASMSQQLKAKLDFFKTSIQIDLEKYSEQTEFGITSDKLLLAWREMEQAVELCGRENEVKLLVERMMALQTDIVDLQRSPMGRKQGGTLDDLEEQARELYRRLREKPRDQRTEGDSQEMVRLLLQAIQSFEKKVRVIYTQLSKTVVCKQKALELLPKVEEVVSLMNEDEKTVVRLQEKRQKELWNLLKIACSKVRGPVSGSPDSMNASRLSQPGQLMSQPSTASNSLPEPAKKSEELVAEAHNLCTLLENAIQDTVREQDQSFTALDWSWLQTEEEEHSCLEQAS
Regarding B2, the binding result in test [1] and in test [2] was “binds” each time.

B3: KLHL21 (other, human, UniProt Q9UJP4 1-597, looked up)
chain: MERPAPLAVLPFSDPAHALSLLRGLSQLRAERKFLDVTLEAAGGRDFPAHRAVLAAASPYFRAMFAGQLRESRAERVRLHGVPPDMLQLLLDFSYTGRVAVSGDNAEPLLRAADLLQFPAVKEACGAFLQQQLDLANCLDMQDFAEAFSCSGLASAAQRFILRHVGELGAEQLERLPLARLLRYLRDDGLCVPKEEAAYQLALRWVRADPPRRAAHWPQLLEAVRLPFVRRFYLLAHVEAEPLVARCPPCLRLLREARDFQAARYDRHDRGPCPRMRPRPSTGLAEILVLVGGCDQDCDELVTVDCYNPQTGQWRYLAEFPDHLGGGYSIVALGNDIYVTGGSDGSRLYDCVWRYNSSVNEWAEVAPMLKAREYHSSSVLDGLLYVVAADSTERYDHTTDSWEALQPMTYPMDNCSTTACRGRLYAIGSLAGKETMVMQCYDPDTDLWSLVDCGQLPPWSFAPKTATLNGLMYFVRDDSAEVDVYNPTRNEWDKIPSMNQVHVGGSLAVLGGKLYVSGGYDNTFELSDVVEAYDPETRAWSVVGRLPEPTFWHGSVSIFRQFMPQTFSGGRGFELDSGSDDMDPGRPRPPRDPDELH
On to B3, for which the binding result in test [1] and in test [2] was “binds” in each case.

B4: IFT57 (other, human, UniProt Q9NWB7 1-429, looked up)
chain: MTAALAVVTTSGLEDGVPRSRGEGTGEVVLERGPGAAYHMFVVMEDLVEKLKLLRYEEEFLRKSNLKAPSRHYFALPTNPGEQFYMFCTLAAWLINKAGRPFEQPQEYDDPNATISNILSELRSFGRTADFPPSKLKSGYGEHVCYVLDCFAEEALKYIGFTWKRPIYPVEELEEESVAEDDAELTLNKVDEEFVEEETDNEENFIDLNVLKAQTYHLDMNETAKQEDILESTTDAAEWSLEVERVLPQLKVTIRTDNKDWRIHVDQMHQHRSGIESALKETKGFLDKLHNEITRTLEKISSREKYINNQLENLVQEYRAAQAQLSEAKERYQQGNGGVTERTRLLSEVMEELEKVKQEMEEKGSSMTDGAPLVKIKQSLTKLKQETVEMDIRIGIVEHTLLQSKLKEKSNMTRNMHATVIPEPATGFY
Consider B4, for which the binding result in test [1] and in test [2] was “binds” in each case.

B5: KLHDC10 (other, human, UniProt Q6PID8 1-442, looked up)
chain: MSAAQGWDRNRRRGGGAAGAGGGGSGAGGGSGGSGGRGTGQLNRFVQLSGRPHLPGKKKIRWDPVRRRFIQSCPIIRIPNRFLRGHRPPPARSGHRCVADNTNLYVFGGYNPDYDESGGPDNEDYPLFRELWRYHFATGVWHQMGTDGYMPRELASMSLVLHGNNLLVFGGTGIPFGESNGNDVHVCNVKYKRWALLSCRGKKPSRIYGQAMAIINGSLYVFGGTTGYIYSTDLHKLDLNTREWTQLKPNNLSCDLPEERYRHEIAHDGQRIYILGGGTSWTAYSLNKIHAYNLETNAWEEIATKPHEKIGFPAARRCHSCVQIKNDVFICGGYNGEVILGDIWKLNLQTFQWVKLPATMPEPVYFHCAAVTPAGCMYIHGGVVNIHENKRTGSLFKIWLVVPSLLELAWEKLLAAFPNLANLSRTQLLHLGLTQGLIERLK
As for B5, the binding result in test [1] and in test [2] was “binds” each time.

B6: KLHL11 (other, human, UniProt Q9NVR0 16-708, looked up)
chain: ASLQVLEMESMETAAAGSAGLAAEVRGSGTVDFGPGPGISAMEASGGDPGPEAEDFECSSHCSELSWRQNEQRRQGLFCDITLCFGGAGGREFRAHRSVLAAATEYFTPLLSGQFSESRSGRVEMRKWSSEPGPEPDTVEAVIEYMYTGRIRVSTGSVHEVLELADRFLLIRLKEFCGEFLKKKLHLSNCVAIHSLAHMYTLSQLALKAADMIRRNFHKVIQDEEFYTLPFHLIRDWLSDLEITVDSEEVLFETVLKWVQRNAEERERYFEELFKLLRLSQMKPTYLTRHVKPERLVANNEVCVKLVADAVERHALRAENIQSGTCQHPTSHVSLLPRYGQNMDVIMVIGGVSEGGDYLSECVGYFVDEDRWVNLPHIHNHLDGHAVAVTESYVYVAGSMEPGFAKTVERYNPNLNTWEHVCSLMTRKHSFGLTEVKGKLYSIGGHGNFSPGFKDVTVYNPELDKWHNLESAPKILRDVKALAIEDRFVYIAARTPVDRDTEDGLKAVITCYDTETRQWQDVESLPLIDNYCFFQMSVVNSNFYQTASCCPKSYCLENEEAVRKIASQVSDEILESLPPEVLSIEGAAICYYKDDVFIIGGWKNSDDIDKQYRKEAYRYCAERKRWMLLPPMPQPRCRATACHVRIPYRYLHGTQRYPMPQNLMWQKDRIRQMQEIHRHALNMRRVPSSQIEC
For B6, the binding result in test [1] and in test [2] was “binds” each time.
